Assay results published in patent EP4620474A1.

Molecular target: human receptor for C5a (human) (UniProt P21730)
Experiment: cell-based or functional assay

UniProt P21730, sequence (P21730 whole entry): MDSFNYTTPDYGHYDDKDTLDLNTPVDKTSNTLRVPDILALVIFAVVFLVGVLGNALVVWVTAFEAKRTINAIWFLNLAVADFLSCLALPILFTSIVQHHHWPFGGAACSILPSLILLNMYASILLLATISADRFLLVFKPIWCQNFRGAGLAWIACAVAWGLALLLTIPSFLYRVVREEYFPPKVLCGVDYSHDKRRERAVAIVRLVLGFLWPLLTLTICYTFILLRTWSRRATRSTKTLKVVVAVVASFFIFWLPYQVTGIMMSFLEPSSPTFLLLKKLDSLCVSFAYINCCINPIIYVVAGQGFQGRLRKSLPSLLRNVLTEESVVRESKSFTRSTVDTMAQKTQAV

Row | half effective concentrations (EC50), chemotaxis (migration) of BA/F3/huC5aR cells [pM] | Substance
1 | 300 | mouse C5a (from UniProt P06684 679-755) (ligand)
2 | 100 | recombinant human C5a (from UniProt P01031 678-751) (ligand)
